Experimental data from article PMC5379950.

Target: microtubules (MTs) assembled with taxol in M-phase Xenopus egg extract (Xenopus laevis (endogenous in egg extract))
Assay: co-sedimentation

fold increase in MT binding (against xINCENP): 2 fold
Substance: GFP-xINCENP 7A (from UniProt O13024 1-873) (natural protein)
